# Reference: paper PMC6267984
# Molecular target: Orai1-CFP (UniProt Q96D31)
# Sequence of UniProt Q96D31 (Q96D31 whole entry): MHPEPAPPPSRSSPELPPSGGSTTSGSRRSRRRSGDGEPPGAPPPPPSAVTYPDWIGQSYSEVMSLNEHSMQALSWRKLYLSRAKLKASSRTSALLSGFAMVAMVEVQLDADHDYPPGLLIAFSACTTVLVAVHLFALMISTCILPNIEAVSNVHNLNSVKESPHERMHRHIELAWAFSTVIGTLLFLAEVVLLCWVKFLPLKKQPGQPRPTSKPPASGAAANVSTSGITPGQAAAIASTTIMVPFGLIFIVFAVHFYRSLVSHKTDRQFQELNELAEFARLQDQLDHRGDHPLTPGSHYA
row,constitutive Ca2+ entry at rest [nM],Substance
1,6.6,STIM1-G379E (from UniProt Q13586 23-685) (natural protein)
2,3.5,STIM1-G379E-ΔK (domain or fragment)
